This note sets out measurements from paper PMC11883276.

The target of assay [1] is full-length human E-cadherin fused to GFP at the C-terminus, on A431-D cells (A431-D^E-cad) (human) (UniProt P12830).
Assay [2] has as its target full-length wild-type human N-cadherin on A431-D cells (A431-D^N-cad; A431-D^N-cad+FGFR) (human) (UniProt P19022).
For assay [3] the target is unchanged. The source holds these as a separate data set.
Assay [4] addresses Fc-tagged extracellular domain of E-cadherin (E-cad-Fc) (UniProt P12830). Description: density of cells attached to cadherin-coated substrates; A431-D^E-cad or A431-D^N-cad+FGFR cells counted 90 min after seeding in 0.5% serum with the fibronectin-blocking antibody 16G3 on E-cad-Fc or N-cad-Fc substrates; further samples treated with Gefitinib, BGJ398, DECMA-1 or anti-N-cad antibody.

For assay [5], the target named is Fc-tagged extracellular domain of N-cadherin (N-cad-Fc) (UniProt P19022). Described as above.
Assay [6] addresses Fc-tagged extracellular domain of E-cadherin (E-cad-Fc) (UniProt P12830).
Assay [7] deals with Fc-tagged extracellular domain of N-cadherin (N-cad-Fc) (UniProt P19022).
The target is the same in assay [8]. Description: capillary shear flow cell adhesion assay; as a1, but with A431-D^N-cad+FGFR cells (N-cad co-expressed with FGFR1) on N-cad-Fc-coated capillaries.
For assay [9], the target named is Fc-tagged extracellular domain of E-cadherin (E-cad-Fc) (UniProt P12830). The source holds these as a separate data set.
Assay [10] deals with Fc-tagged extracellular domain of N-cadherin (N-cad-Fc) (UniProt P19022). This is another data set of the same source.
Assay [11] shares this target. Description: capillary shear flow cell adhesion assay; cadherin-Fc (50 µg/ml) physisorbed on the inner walls of glass capillaries, blocked with BSA; A431-D^E-cad or A431-D^N-cad cells bound 20 min under static conditions, room temperature, low-serum medium with 2 mM Ca2+, then flow increased every 30 s; WSS50 from fits to Eqn 1.
Assay [12] deals with Fc-tagged extracellular domain of E-cadherin (E-cad-Fc) (UniProt P12830). The source holds these as a separate data set.
Assay [13] concerns the target Fc-tagged extracellular domain of N-cadherin (N-cad-Fc) (UniProt P19022). This is another data set of the same source.
Assay [14] addresses endogenous human E-cadherin on MCF-7 cells (human) (UniProt P12830).

For “Fc-tagged extracellular domain of N-cadherin (N-cad-Fc) (from UniProt P19022 160-724) (Fc fusion)”, the relative change of cell stiffness during bead twisting (MTC), N-cad beads on A431-D^E-cad cells in assay [1] is -3.6%. This substance also had a relative change of cell stiffness during bead twisting (MTC), N-cad beads on A431-D^N-cad+FGFR cells in assay [2] of 17%. Moreover, the relative change of cell stiffness during bead twisting (MTC), N-cad beads on A431-D^N-cad cells (no FGFR) in assay [3] was 4%.
On to “full-length human E-cadherin fused to GFP at the C-terminus, on A431-D cells (A431-D^E-cad) (from UniProt P12830 23-882) (receptor)”, for which the density of cells retained on the substrate is 25 cells/mm^2 in [4] and 19 cells/mm^2 in assay [5]. In assay [6], this substance had an RMS traction stress of A431-D^E-cad cells on E-cad-Fc-coated 40 kPa gels, 0.5% serum of 160 Pa. For the same substance, in [7], the RMS traction stress of A431-D^E-cad cells on N-cad-Fc-coated 40 kPa gels, 0.5% serum stood at 82 Pa.
“full-length wild-type human N-cadherin on A431-D cells (A431-D^N-cad; A431-D^N-cad+FGFR) (from UniProt P19022 26-906) (receptor)”: the figures for the WSS50 (wall shear stress at which 50% of the cells are retained) in [8] and in assay [11] were 17 dynes/cm^2 and 15 dynes/cm^2, respectively. Also, the RMS traction stress of A431D^N-cad cells (no FGFR) on E-cad-Fc-coated 40 kPa gels in [9] came to 88 Pa. In addition, the RMS traction stress of A431D^N-cad cells (no FGFR) on N-cad-Fc-coated 40 kPa gels in assay [10] was 85 Pa. Besides, in assay [12], the RMS traction stress of A431-D^N-cad+FGFR cells on E-cad-Fc-coated 40 kPa gels, 0.5% serum was determined as 100 Pa. The RMS traction stress of A431-D^N-cad+FGFR cells on N-cad-Fc-coated 40 kPa gels, 0.5% serum in assay [13] turned out to be 176 Pa. Besides, the density of cells attached to the substrate was 15 cells/mm² in [4] and 22 cells/mm² in assay [5].
Consider “Fc-tagged extracellular domain of E-cadherin (E-cad-Fc) (from UniProt P12830 155-709) (Fc fusion)”, for which, in assay [1], the relative change of cell stiffness during bead twisting (MTC), E-cad beads on A431-D^E-cad cells amounted to 16%. Moreover, in assay [14], the relative change of cell stiffness during bead twisting (MTC), E-cad beads on MCF-7 cells amounted to 17%. For the same substance, in assay [3], the relative change of cell stiffness during bead twisting (MTC), E-cad beads on A431-D^N-cad cells (no FGFR) is -1%.
